Measurements published in the supplement of paper PMC10567573.

B1: CIB1 (parent)
chain: DLSRLVNCLTGEGEDTRLSASEMK
B2: HSP90AB1 (parent)
chain: TLRQKAEADKNDKAVKDLVVLLFE

Variants of: B1
Test: protein stability index of a GFP-peptide fusion (GPS, HEK-293T) (PSI 1-6); higher = more stable
Settings: c terminus: a fixed tail appended
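Further: lentivirally expressed fusions sorted by FACS into six bins by GFP to DsRed ratio, PSI derived from sequencing read proportions per bin multiplied by bin number.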

Protein stability index of substitutions, site by site:
K24: Q 3.31; S 2.89; V 2.04; W 1.86; Y 2.23

Variants of: B2
Test: as above
Settings: c terminus: a fixed tail appended

Protein stability index of substitutions, site by site:
T1: A 3.35; C 2.26; D 3.58; E 3.92; F 2.42; G 3.53; H 3.09; K 2.49; L 2.3; M 3.02; N 2.57; P 3.57; Q 3.54; R 2.47; S 4.38; V 2.52; W 2.51; Y 2.63
L2: C 3.12; D 3.13; E 3.01; F 2.65; G 3.13; I 3.16; K 2.26; M 2.95; N 2.79; P 3.23; Q 3.62; R 2.56; S 3.05; V 3.15; W 2.43; Y 2.64
R3: A 3.46; C 2.75; D 3.57; E 3.17; F 2.8; G 2.72; H 2.84; I 3.18; K 3.36; L 3.11; N 3.1; Q 3.11; S 3.58; T 3.59; W 2.6; Y 2.35
Q4: A 2.63; C 2.51; D 3.32; E 3.39; F 2.58; G 3.06; H 2.37; I 2.41; K 3.26; M 2.48; N 2.71; P 3.06; R 2.26; S 3.21; W 2.71; Y 2.37
K5: A 3.12; C 2.85; D 3.88; E 3.38; F 2.75; G 3.87; H 3.01; I 3.03; L 3.1; M 3.48; Q 4.01; R 3; S 3.36; T 3.15; V 3.24; Y 3.26
A6: C 2.91; D 3.41; E 3.33; F 2.74; G 2.72; I 3.35; K 2.71; M 2.93; N 2.61; P 3.29; Q 2.68; R 2.69; T 2.85; W 3.32
E7: A 2.67; C 2.28; D 2.79; G 2.24; I 2.63; K 2; L 2.54; M 2.48; N 2.72; P 2.58; Q 1.9; R 2.29; S 2.67; V 2.63; W 1.81; Y 1.79
A8: C 2.87; D 3.57; E 3.16; F 2.89; G 3.9; H 2.85; L 2.38; N 3.35; P 2.21; Q 3.24; R 2.87; V 3.27; W 3.03
D9: A 2.98; C 2.73; E 2.74; F 2.52; G 3.17; H 2.95; I 2.26; K 2.51; N 2.51; P 2.48; Q 3.23; S 2.92; T 2.35; V 2.38; Y 2.87
K10: A 3.44; D 3.11; E 2.73; F 2.53; G 2.63; H 2.69; I 3.06; L 2.61; M 2.65; N 2.98; P 3.68; Q 2.98; R 3.29; S 3.56; T 2.92; V 2.57; W 2.52
N11: A 3; C 2.88; D 2.84; E 3.21; F 3.09; G 3.13; I 2.98; K 2.43; L 2.83; M 3.11; P 2.58; Q 2.62; R 3.15; S 2.95; T 3.37; V 2.89
D12: A 2.44; C 2.59; E 2.95; F 2.24; G 2.48; H 2.56; I 2; K 1.99; L 2.73; N 2.62; P 2.49; Q 2.7; R 3.48; S 3.17; T 2.22; W 2.07
K13: A 3.19; C 2.84; D 2.63; E 3.39; F 1.93; G 2.77; H 2.46; I 2.47; M 2.75; N 2.85; P 3.22; Q 3.21; S 2.99; T 2.96; V 2.91; W 1.73; Y 2.2
A14: C 2.35; D 2.58; E 3.64; F 2.02; G 3.17; H 2.79; I 3; K 3.1; L 2.63; M 2.73; N 2.56; P 2.99; Q 2.92; R 2.62; S 2.26; T 2.57; V 2.44; W 2.68
V15: A 3.1; D 3.2; E 3.37; F 2.91; G 3.48; I 2.48; K 3.27; L 2.81; M 3.47; N 3.12; P 2.54; Q 2.86; R 2.49; S 3.09; T 3.11; W 2.64; Y 3.43
K16: A 2.87; C 2.19; D 3.36; E 3.06; F 3.28; H 3.29; I 2.24; M 2.86; N 3.44; P 2.65; Q 3.75; S 2.92; T 2.99; V 3.65; W 3.02; Y 2.24
D17: A 1.99; C 1.83; E 2.96; F 1.51; G 2.26; H 2.52; I 2.35; K 2.14; L 1.49; N 2.69; P 2.87; Q 2.04; R 1.98; S 2.58; T 1.95; V 1.6; W 2.62; Y 1.91
L18: C 2.85; D 4.2; E 4.04; F 2.24; G 3.69; H 3.3; I 2.95; K 3.44; M 3.29; N 4.19; P 4.21; Q 4.03; R 3.19; S 3.9; V 2.24; W 3.19; Y 2.87
V19: A 3.72; C 3.16; D 4.61; E 5.04; F 2.96; G 4.16; H 4.22; I 3.5; K 4.26; L 2.68; M 2.44; N 3.91; P 4.38; Q 4.23; R 4.18; S 4.08; T 4.13; W 2.7; Y 3.1
V20: A 4.47; C 3.53; D 5.3; E 5.2; F 2.96; G 3.64; H 3.43; L 3.13; M 3.77; N 4.46; P 4.05; Q 4.1; R 2.88; S 4.6; T 3.48; W 2.58; Y 2.7
L21: A 2.67
